Results as given in patent US20260234269A1 (TRUEBINDING, published 2026).

T1: hGal3 peptide 6 (human)
T1 peptide: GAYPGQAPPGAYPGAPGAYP

T2: hGal3 peptide 7 (human)
T2 peptide: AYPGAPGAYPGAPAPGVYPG


Key:
[1] = biological target: T3, Human Galectin-3 protein (Acro Biosystems, GA3-H5129) (human, UniProt P17931 2-250); assay: ELISA titration, blocking of GAL3-TIM3; competitor TIM3
T3 construct: Bought protein; also called hGal3; Gal3; not shown: linker-spaced 6-histidine tag

[2] = biological target: T3, Human Galectin-3 protein (Acro …); assay: ELISA, hGal3 coated, antibody 3 ug/mL, competitor hTIM3
[3] = biological target: T3, Human Galectin-3 protein (Acro …); assay: SPR Biacore T200, antibody captured, Galectin-3 analyte
hGal3 peptide 6 = biological target: T1, hGal3 peptide 6; assay: peptide ELISA, 20-mer library (Epitope Mapping)
hGal3 peptide 7 = biological target: T2, hGal3 peptide 7; assay: peptide ELISA, 20-mer library (Epitope Mapping)

T3 sequence (P17931 2-250): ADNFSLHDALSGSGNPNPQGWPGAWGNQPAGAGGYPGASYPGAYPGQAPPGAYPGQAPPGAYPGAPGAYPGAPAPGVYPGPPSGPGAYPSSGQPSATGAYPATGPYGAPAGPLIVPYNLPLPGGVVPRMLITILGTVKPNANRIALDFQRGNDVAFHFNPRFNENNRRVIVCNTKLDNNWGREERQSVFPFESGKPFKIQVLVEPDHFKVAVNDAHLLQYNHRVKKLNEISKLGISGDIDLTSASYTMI

| Binder | IC50 [1] | GAL3-TIM3 Blocking @ 3 ug/mL [2] | Kd [3] | binding result (hGal3 peptide 6) | binding result (hGal3 peptide 7) |
| --- | --- | --- | --- | --- | --- |
| IMT001-4 (antibody, IgG4, V domains shown, also called HuIMT001-4) VH: QVQLVQSGSELKKPGASVKVSCKASGYTFTNYGMNWVRQAPGQGLKWMGWINTNTGEPTYVEEFTGRFVFSLETSVSTAYLQISSLKAEDTAVYFCAPYDNFFAYWGQGTTVTVSS VL: DIVLTQSPLSLPVTPGEPASISCRSSKSLLYKDGKTYLNWFLQKPGQSPQLLIYLMSTHASGVPDRFSGSGSGTDFTLKISRVEAEDVGVYYCQQLVDYPLTFGGGTKLEIKR | 5.6 nM | – | – | – | – |
| 846T.1H2 (antibody, V domains shown, murine antibody) VH: QIQLVQSGPELKKPGETVKISCKASGYTFTNYGMNWVKQAPGKGLKWMGWINTNTGEPTYAEEFKGRFAFSLETSASTAYLQINNLKNEDTATYFCATGGGNWDFDYWGQGTTLTVSS VL: not shown | – | 81% | 2.82 nM | – | – |
| 846.2H3 (antibody, V domains shown, murine antibody) VH: QIQLVQSGPELKKPGETVKISCKASGYTFTNYGMNWVKQAPGKGLKWMGWINTYTGEPSYADDFKGRFAFSLETSASTAYLQINNLKNEDMATYFCARWGGYDGDYYAMDYWGQGTSVTVSS VL: NIMMTQSPSSLAVSAGEKVTMSCKSSQSVLYSSNQKNYLAWYQQKPGQSPKLLIYWASTRESGVPDRFTGSGSGTDFTLTISSVQPEDLAVYYCHQYLSSLTFGAGTKLELK | – | 100% | 10.2 nM | – | – |
| 846.1F5 (antibody, V domains shown, murine antibody) VH: QIQLVQSGPELKKPGETVKISCKASGYTFTNYGMNWVKQAPGKGLKWMGWINTYTGEPSYADDFKGRFAFSLETSASTAYLQINNLKNEDMATYFCARWGGYDGDYYAMDYWGQGTSVTVSS VL: NIMMTQSPSSLAVSAGEKVTMSCKSSQSVLYSSNQKNYLAWYQQKPGQSPKLLIYWASTRESGVPDRFTGSGSGTDFTLTISSVQPEDLAVYYCHQYLSSLTFGAGTKLELK | – | 90% | 2.73 nM | – | – |
| 19B5.2E6 (antibody, V domains shown, murine antibody) VH: QIQLVQSGPELKKPGETVKISCKASGYTFTTYAMSWVKQAPGKGLKWMGWINTYSGVPTYADDLKGRFAFSLETSASTAYLQINNLKNEDTATYFCARGPYAMDYWGQGTSVTVSS VL: DIQMTQTTSSLSASLGDRVTISCSASQGINNYLNWYQQKPDGTVKLLIYYASSLHSGVPSRFSGSGSGTDYSLTISNLEPEDIATYYCQQYSQVPYTFGSGTKLEIK | – | 61% | < 1 nM | – | – |
| 20H5.A3 (antibody, V domains shown, murine antibody) VH: QIQLVQSGPELKKPGESVKISCKASGYAFTTYGMSWVQQAPGKGLKWMGWVNTYSGVPTCADDFKGRFAFSLETSASTAYLQINNLRNEDTATYFCARGPYAMDYWGQGTSVTVSS VL: DIQMTQTTSSLSASLGDRVTINCSASQDISNYLNWYQQKPDGTVKLLIYYTSSLLSGVPSRFSGSGSGTDYSLTISNLEPEDIATYFCQQYSKLPYTFGSGTHLEIK | – | 81% | 3.95 nM | – | – |
| 23H9.2E4 (antibody, V domains shown, murine antibody) VH: QIQLVQSGPELKKPGETVKISCKASGYTFTTYAMSWVKQAPGKGLKWMGWINTYSGVPTYADDLKGRFAFSLETSASTAYLQINNLKNEDTATYFCARGPYAMDYWGQGTSVTVSS VL: DIQMTQTTSSLSASLGDRVTISCSASQGINNYLNWYQQKPDGTVKLLIYYASSLHSGVPSRFSGSGSGTDYSLTISNLEPEDIATYYCQQYSQVPYTFGSGTKLEIK | – | 80% | 4.26 nM | – | – |
| 6H6.2D6 (antibody, V domains shown, murine antibody) VH: QIQLVQSGPELKKPGETVKISCKASGYTFTTYGMSWVKQAPGKGLKWMAWINTYSGVPTYADDFKGRFAFSLETSASTAYLQINNLTNEDTATYFCARGPYAMDYWGQGTSVTVSS VL: DIQMTQTTSSLSASLGDRVTISCSASQGISNYLNWYQQKPDGTVKLLIYYTSSLHSGVPSRFSGSGSGTDYSLTISNLEPEDIATYYCQQYSELPYTFGSGTKLEIK | – | 82% | 4.86 nM | – | – |
| 2D10.2B2 (antibody, V domains shown, murine antibody) VH: QVQLQQSGPELVKPGASVKISCKASGYTFTDYYINWVKQRPGQGLEWIGWIYPGSNDTKYNEKFKGKATLTVDTSSSTAYMQLGSLTSEDSAVYFCANYFGCSGWFFDVWGTGTTVTVSS VL: DIVMTQAAFSNPVTLGTSASISCRSSKSLLHSDGITYLYWYLQRPGQSPQLLIYRMSNLASGVPDRFSGSGSGTDFTLRISRVEAEDVGVYYCAQMIEFPLTFGAGTILELK | – | 86% | 0.753 nM | binds | – |
| 4A11.2B5 (antibody, V domains shown, murine antibody; parent of IMT006-1 and IMT006-5) VH: QVQLQQSGPELVKPGASVKISCKASGYSFTNYYIHWVKQRPGQGLEWIGWIYPGSGNTNYNEKFKGKATLTADTSSSTTNMQLSSLTSEDSAVYYCSTAPGGFDVWGSGTTVTVSS VL: DIVMTQAAFSNPVTLGTSASISCRSSKSLLHSDGITYLYWYLQRPGQSPQLLIYRMSNLASGVPDRFSGSGSGTDFTLRISRVEAEDVGVYYCAQMLEFPLTFGAGTKLELK | – | 48% | 5.22 nM | binds | – |
| 13H12.2F8 (antibody, V domains shown, murine antibody) VH: QIQLVQSGPELKKPGETVKISCKASGYTFTTYGMSWVKQAPGKGLKWMGWINTYSGVPTYADDFKGRFAFSLETSASTAYLQINNLKNEDTATYFCAVPYEYDGAYWGQGTLVTVSA VL: not shown | – | 57% | 6.07 nM | binds | binds |
| 14H10.2C9 (antibody, V domains shown, murine antibody) VH: QIQLVQSGPELKKPGETVKISCKASGYTFTTYGMGWVKQAPGKDLKWMGWINTYSGVPTYADDFKGRFAFSLETSASTAYLQISNLKNEDTATYFCSTPYEYDGAYWGQGTLVTVSA VL: not shown | – | 44% | 0.562 nM | binds | binds |
| 19D9.2E5 (antibody, V domains shown, murine antibody) VH: QIQLVQSGPELKKPGETVKISCKASGYTFTTYGMGWVKQAPGKGLKWMGWINTYSGVPTYADDFKGRFAFSLETSTSTAYLQINNLKNEDMATYFCATPYEYDGAYWGQGTLVTVSA VL: not shown | – | 34% | < 1 nM | binds | binds |
| IMT006-5 (antibody, V domains shown, humanized antibody derived from 4A11.2B5) VH: QVQLVQSGAEVKKPGASVKVSCKASGYSFTNYYMHWVRQAPGQRLEWMGWIYPGSGNTNYNEKFQGRVTITADTSASTAYMELSSLRSEDTAVYYCSTAPGGFDVWGQGTTVTVSS VL: DIVMTQTPLSLSVTPGQPASISCKSSKSLLHSDGITYLYWYLQKPGQSPQLLIYRMSNLASGVPDRFSGSGSGTDFTLKISRVEAEDVGVYYCAQMLEFPLTFGQGTKLEIKR | 4.1 nM | – | – | – | – |
| IMT006-1 (antibody, V domains shown, humanized antibody derived from 4A11.2B5; also called HuIMT006-1) VH: QVQLVQSGAEVKKPGASVKVSCKASGYSFTNYYMHWVRQAPGQGLEWMGWIYPGSGNTNYNEKFQGRVTMTADTSISTAYMELSRLRSDDTAVYYCSTAPGGFDVWGQGTTVTVSS VL: DIVMTQTPLSLSVTPGQPASISCKSSKSLLHSDGITYLYWYLQKPGQSPQLLIYRMSNLASGVPDRFSGSGSGTDFTLKISRVEAEDVGVYYCAQMLEFPLTFGQGTKLEIKR | 26.5 nM | – | – | – | – |
| IMT006-8 (antibody, V domains shown, humanized antibody) VH: QVQLVQSGAEVKKPGASVKVSCKASGYSFTNYYIHWVRQAPGQRLEWMGWIYPGSGNTNYNEKFQGRVTLTADTSASTTYMELSSLRSEDTAVYYCSTAPGGFDVWGQGTTVTVSS VL: DIVMTQSPLSLPVTPGEPASISCRSSKSLLHSDGITYLYWYLQKPGQSPQLLIYRMSNLASGVPDRFSGSGSGTDFTLKISRVEAEDVGVYYCAQMLEFPLTFGQGTKLEIKR | 2.8 nM | – | – | – | – |
